A word on the stoichiometry N: it is a count of units in the complex or per binding partner.

This note sets out measurements from publication doi:10.1101/2024.07.18.604040.

For the experiment, the target named is recombinant human λS Full-Length free light chain (rλS-LC) (human).

With “recombinant human λS Full-Length free light chain (rλS-LC) (natural protein)”, the stoichiometry N was 2.
